Assay results published in publication PMC4512291.

Columns and labels:
e6ap peptide = assay: ITC
[1] = target: E6 F47R 4C4S, a soluble mutant of HPV16 E6 (HPV16); assay: ITC

| Substance | Kd (e6ap peptide) | Kd [1] |
| --- | --- | --- |
| E6 F47R 4C4S, a soluble mutant of HPV16 E6 (natural protein) | > 10 µM | – |
| LxxLL peptide (E6-binding LxxLL motif of E6AP) | – | 42 µM |
